Measured values taken from patent publication US20180148504A1 (EISAI R AND D MANAGEMENT, published 2018).

Experiments:
[1] = target: T1, recombinant purified FRα (ECL assay calibrator) (human, UniProt P15328 25-234); test: ECL sandwich, FRα calibrator; capture 24H8.D3; binder = detection Ab
T1 construct: Calibrator of the ECL sandwich assays; also called FRα calibrator; FRα standard

[2] = target: T1, recombinant purified FRα (ECL assay …); test: ECL sandwich, FRα calibrator; capture 28H12.G9; binder = detection Ab
[3] = target: T1, recombinant purified FRα (ECL assay …); test: ECL sandwich, FRα calibrator; capture 26A9.C4; binder = detection Ab
[4] = target: T1, recombinant purified FRα (ECL assay …); test: ECL sandwich on FRα, signal to background; capture 28H12.G9; binder = detection Ab
[5] = target: T1, recombinant purified FRα (ECL assay …); test: ECL sandwich, FRα calibrator; capture 1D2.G8.G10; binder = detection Ab
[6] = target: T1, recombinant purified FRα (ECL assay …); test: ECL sandwich on FRα, signal to background; capture 19D4.B7; binder = detection Ab
[7] = target: T1, recombinant purified FRα (ECL assay …); test: ECL sandwich on FRα, signal to background; capture 26A9.C4; binder = detection Ab
[8] = target: T1, recombinant purified FRα (ECL assay …); test: ECL sandwich, FRα calibrator; capture 19D2.G9; binder = detection Ab
[9] = target: T1, recombinant purified FRα (ECL assay …); test: ECL sandwich on FRα, signal to background; capture 6A2.G7; binder = detection Ab
[10] = target: T1, recombinant purified FRα (ECL assay …); test: ECL sandwich on FRα, signal to background; capture 1D2.G8.G10; binder = detection Ab
[11] = target: T1, recombinant purified FRα (ECL assay …); test: ECL sandwich on FRα, signal to background; capture 5C12.H8; binder = detection Ab
[12] = target: T1, recombinant purified FRα (ECL assay …); test: ECL sandwich, FRα calibrator; capture 1C6.E12.G8; binder = detection Ab
[13] = target: T1, recombinant purified FRα (ECL assay …); test: ECL sandwich, FRα calibrator; capture 1A8.G11.E7; binder = detection Ab
[14] = target: T1, recombinant purified FRα (ECL assay …); test: ECL sandwich on FRα, signal to background; capture 30G6.G6.G4.E9; binder = detection Ab
[15] = target: T1, recombinant purified FRα (ECL assay …); test: ECL sandwich on FRα, signal to background; capture 1C6.E12.G8; binder = detection Ab
[16] = target: T1, recombinant purified FRα (ECL assay …); test: ECL sandwich on FRα, signal to background; capture 19D2.G9; binder = detection Ab
[17] = target: T2, recombinant human folate receptor alpha (rhFRα) (human, UniProt P15328 25-234); test: BIAcore (SPR), format not described
T2 construct: CHO: Ig kappa leader, C-terminal 6xHis replacing the GPI attachment site; also called FOLR1; FOLR-1
T2 sequence (P15328 25-234 limits assumed): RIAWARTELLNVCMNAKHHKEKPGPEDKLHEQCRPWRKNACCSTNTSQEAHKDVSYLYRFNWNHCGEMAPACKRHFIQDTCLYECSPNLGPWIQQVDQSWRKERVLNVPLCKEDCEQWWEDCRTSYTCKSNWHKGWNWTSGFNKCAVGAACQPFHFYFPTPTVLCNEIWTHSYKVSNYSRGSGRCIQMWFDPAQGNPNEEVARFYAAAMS

[18] = target: T3, human folate receptor gamma (FRγ), recombinant, C-terminal 6xHis (human, UniProt P41439 23-245, limits assumed); test: direct ELISA, plates coated with 1 µg/mL FR isoform, dilution series of culture supernatant
T3 construct: Transiently expressed in 293F cells and purified; coated on ELISA plates
T3 sequence (P41439 other isoform, or with tags, fused parts or gaps limits assumed): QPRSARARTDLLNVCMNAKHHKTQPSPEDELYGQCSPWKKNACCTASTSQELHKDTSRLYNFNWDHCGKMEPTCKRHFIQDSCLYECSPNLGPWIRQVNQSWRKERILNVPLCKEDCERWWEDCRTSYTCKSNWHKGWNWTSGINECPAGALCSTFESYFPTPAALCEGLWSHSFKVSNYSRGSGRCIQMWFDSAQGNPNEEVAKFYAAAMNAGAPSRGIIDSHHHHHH

[19] = target: T4, human folate receptor beta (FRβ), recombinant, C-terminal 6xHis (human, UniProt P14207 17-230, limits assumed); test: as above
T4 construct: Transiently expressed in 293F cells and purified; coated on ELISA plates
T4 sequence (P14207 other isoform, or with tags, fused parts or gaps limits assumed): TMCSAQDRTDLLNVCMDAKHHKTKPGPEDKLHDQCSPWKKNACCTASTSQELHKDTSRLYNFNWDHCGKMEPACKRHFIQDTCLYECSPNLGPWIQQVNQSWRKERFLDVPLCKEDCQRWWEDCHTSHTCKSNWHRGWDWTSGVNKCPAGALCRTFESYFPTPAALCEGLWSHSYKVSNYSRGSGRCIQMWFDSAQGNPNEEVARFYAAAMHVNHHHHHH

[20] = target: T1, recombinant purified FRα (ECL assay …); test: ECL sandwich, FRα calibrator; capture 30G6.G6.G4.E9; binder = detection Ab
[21] = target: T1, recombinant purified FRα (ECL assay …); test: ECL sandwich on FRα, signal to background; capture 24H8.F3; binder = detection Ab
[22] = target: T1, recombinant purified FRα (ECL assay …); test: ECL sandwich on FRα, signal to background; capture 24H8.D3; binder = detection Ab
[23] = target: T1, recombinant purified FRα (ECL assay …); test: ECL sandwich, FRα calibrator; capture 2F11.F8; binder = detection Ab
[24] = target: T1, recombinant purified FRα (ECL assay …); test: ECL sandwich on FRα, signal to background; capture 2F11.F8; binder = detection Ab
[25] = target: T1, recombinant purified FRα (ECL assay …); test: ECL sandwich, FRα calibrator; capture 19D4.B7; binder = detection Ab
[26] = target: T1, recombinant purified FRα (ECL assay …); test: ECL sandwich on FRα, signal to background; capture 1A8.G11.E7; binder = detection Ab
[27] = target: T1, recombinant purified FRα (ECL assay …); test: ECL sandwich, FRα calibrator; capture 6A2.G7; binder = detection Ab
[28] = target: T1, recombinant purified FRα (ECL assay …); test: ECL sandwich, FRα calibrator; capture 24H8.F3; binder = detection Ab
[29] = target: T1, recombinant purified FRα (ECL assay …); test: ECL sandwich, FRα calibrator; capture 5C12.H8; binder = detection Ab

T1 sequence (P15328 25-234 limits assumed): as the sequence (P15328 25-234 limits assumed) above

B1: Monoclonal antibody 6A2.G7 (antibody, mouse IgG1, V domains shown)
VH: GADLVKPGASVKMSCKASGYTFSRYNMHWVKQTPGQGLEWIGTIYPGNGDTSYNEKFKGKATLTADKSSSIVYMQVSSLTSEASAVYYCARDYGSRYALDYWGQGTSVTVSS
VL: SSLSASLGDRVTISCRASQDISNYLNWYQQKPDGTVKLLIYYTSRLHSGVPSRFSGSGSGTDYSLTISNLEQEDIATYFCQQGNTLPYTFGGGTKLEIK
notes: Murine IgG1 kappa from hybridoma; also called ATCC PTA-123093
[1]
  Specific signal at 500 pg/mL: 6620
[2]
  Specific signal at 500 pg/mL: 432
[3]
  Specific signal at 500 pg/mL: 347
[4]
  Average of S/B: 7
[5]
  Specific signal at 500 pg/mL: 347
[6]
  Average of S/B: 145
[7]
  Average of S/B: 4
[8]
  Specific signal at 500 pg/mL: 11700
[9]
  Average of S/B: 1
[10]
  Average of S/B: 5
[11]
  Average of S/B: 1
[12]
  Specific signal at 500 pg/mL: 217
[13]
  Specific signal at 500 pg/mL: 6000
[14]
  Average of S/B: 31
[15]
  Average of S/B: 3
[16]
  Average of S/B: 205
[17]
  Kd: 15 nM
[18]
  binding result: no binding
[19]
  binding result: no binding
[20]
  Specific signal at 500 pg/mL: 2410
[21]
  Average of S/B: 63
[22]
  Average of S/B: 109
[23]
  Specific signal at 500 pg/mL: 283
[24]
  Average of S/B: 5
[25]
  Specific signal at 500 pg/mL: 10800
[26]
  Average of S/B: 89
[27]
  Specific signal at 500 pg/mL: 92
[28]
  Specific signal at 500 pg/mL: 3890
[29]
  Specific signal at 500 pg/mL: 100
